Molecular target: SARS-CoV-2 S ectodomain trimer (SΔTM), wild type (SARS-CoV-2, UniProt P0DTC2)
Experiment: SPR

B1: neutralizing monoclonal antibody 4A8 (NTD-directed), human IgG1 kappa (antibody, V domains shown)
VH: EVQLVESGAEVKKPGASVKVSCKVSGYTLTELSMHWVRQAPGKGLEWMGGFDPEDGETMYAQKFQGRVTMTEDTSTDTAYMELSSLRSEDTAVYYCATSTAVAGTPDLFDYYYGMDVWGQGTTVTVSS
VL: EIVMTQSPLSSPVTLGQPASISCRSSQSLVHSDGNTYLSWLQQRPGQPPRLLIYKISNRFSGVPDRFSGSGAGTDFTLKISRVEAEDVGVYYCTQATQFPYTFGQGTKVDIK
B1 was tested, and the Kd was 0.42 ± 0.07 nM.

From article PMC466946 (Science Advances, 2024)
